The results in this text go back to patent publication US20210079083A1 (INSTITUTE FOR BASIC SCIENCE, published 2021).

Substitutions are numbered along the chain they refer to.

In one test the target is T1, mouse Ang2 (mAng2) (mouse, UniProt O35608 19-496, limits assumed).
T1 construct: Coated on the ELISA plate; also called recombinant mAng2
T1 sequence (looked up): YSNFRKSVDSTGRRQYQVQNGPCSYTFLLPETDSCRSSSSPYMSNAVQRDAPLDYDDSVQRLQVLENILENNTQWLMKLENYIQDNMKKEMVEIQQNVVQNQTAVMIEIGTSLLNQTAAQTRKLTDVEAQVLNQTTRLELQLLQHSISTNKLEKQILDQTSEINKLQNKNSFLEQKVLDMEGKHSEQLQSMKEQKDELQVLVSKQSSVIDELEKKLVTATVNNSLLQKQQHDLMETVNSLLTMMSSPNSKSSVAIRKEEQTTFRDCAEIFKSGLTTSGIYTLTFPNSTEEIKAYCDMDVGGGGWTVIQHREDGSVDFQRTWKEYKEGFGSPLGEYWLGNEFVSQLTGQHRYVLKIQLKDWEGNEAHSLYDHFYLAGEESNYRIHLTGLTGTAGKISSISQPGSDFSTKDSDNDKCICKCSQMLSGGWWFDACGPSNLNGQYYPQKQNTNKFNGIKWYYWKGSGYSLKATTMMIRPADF
Kind of test: ELISA, mAng2 coated at 20 ng per well, detection with anti-human IgG (Fab)-HRP. The protocol: FIG. 8. EC₅₀ values of anti-Ang2 antibodies against mouse Ang2 by ELISA. The binding affinities of humanized anti-Ang2 antibodies for mouse Ang2 (mAng2) were measured by analyzing EC₅₀ with ELISA. The recombinant mAng2 was coated and incubated with serially diluted anti-Ang2 antibodies, 4B9H11 and 2C8H11. Next, the plate was reacted with anti-human IgG (Fab)-HRP secondary antibody. The plate was treated with TMB solution and absorbance was measured at 450 nm. EC₅₀ value was analyzed using PerkinElmer's WorkOut 2.5 program.
The affinity of humanized antibodies for mouse Ang2 (mAng2) was analyzed by ELISA. Specifically, mAng2 was diluted in 30 μl of a coating buffer (0.1 M sodium carbonate buffer) at 20 ng per well in a half 96-well plate (Corning 3690) and incubated overnight at 4° C. After washing with TBS-T solution for 3 times, the well plate was blocked with 3% skim milk at room temperature for 1 hr and then washed again. 2C8H11 and 4B9H11 were serially diluted from […] to 300 ng/ml. After loading 30 μl of the diluted ant-Ang2 antibodies into wells, the well plate was incubated at room temperature for 2 hrs. […] After developing for 5 min, the plate was treated with 1N sulfuric acid to stop the reaction, and absorbance was measured at 450 nm. Based on the measured OD value, the EC₅₀ value was analyzed using PerkinElmer's WorkOut 2.5 program.

The target in test [1] is T2, Human Angiopoietin-2 full-length (hAng2) (human, UniProt O15123 19-496).
T2 construct: The cell assays used full-length hAng2 from R&D Systems; also called human Ang2; A2
T2 sequence: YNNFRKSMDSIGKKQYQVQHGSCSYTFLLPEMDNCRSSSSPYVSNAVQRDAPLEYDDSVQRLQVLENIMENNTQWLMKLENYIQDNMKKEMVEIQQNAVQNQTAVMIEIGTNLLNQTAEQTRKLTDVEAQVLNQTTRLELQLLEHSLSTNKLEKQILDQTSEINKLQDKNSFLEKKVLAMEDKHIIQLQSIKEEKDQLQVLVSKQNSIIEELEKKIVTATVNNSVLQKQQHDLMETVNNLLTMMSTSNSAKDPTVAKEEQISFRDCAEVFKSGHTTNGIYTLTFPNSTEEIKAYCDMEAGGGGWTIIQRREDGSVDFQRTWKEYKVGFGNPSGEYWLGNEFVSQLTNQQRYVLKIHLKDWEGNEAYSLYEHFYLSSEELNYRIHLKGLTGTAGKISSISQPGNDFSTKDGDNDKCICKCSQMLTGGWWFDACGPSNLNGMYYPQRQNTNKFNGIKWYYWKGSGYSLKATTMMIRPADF
Kind of test: BLI (Octet), antibody fixed on AR2G sensor, hAng2 3.125-50 nM in solution, 1:1 global fit. The protocol:
The affinity of humanized anti-Ang2 antibody against hAng2 was measured using Octet system (ForteBio). Specifically, buffer and samples were measured in total 200 μl/well using Black 96-well plates (96 well F-type black plates, Greiner). […] After the hydration, humanized anti-Ang2 antibody was diluted in 10 mM sodium acetate, pH 6.0 buffer at a concentration of 10 μg/ml, fixed on AR2G biosensor, and blocked with 1M ethanolamine. The recombinant hAng2 was diluted to 50, 25, 12.5, 6.25, 3.125, and 0 nM with 1× kinetic buffer, and subjected to association for 300 sec and dissociation for 900 sec.
The affinities of humanized 2C8 antibodies to hAng2 were in Table 15.
(In general: BLI is a label-free optical method that tracks binding on a fibre tip over time.)

What is called EC50 is the concentration giving half of the maximal effect. A lower EC50 goes with higher potency in that assay. As usually defined, the Kd is the concentration at which binding is half-saturated. Low readings indicate a tighter complex, high ones a looser complex. A word on the koff: it is the first-order rate constant of dissociation. Broadly, the kon is the rate constant with which the complex forms. Lower therefore signals slow association.

B1: humanized anti-Ang2 antibody 2C8H11 (antibody, V domains shown)
VH: QVQLVQSGAEVKKPGASVKVSCKASGYTFTSYWMHWVRQAPGQGLEWMGMIDPSDSETRLNQKFKDRVTMTRDTSTSTVYMELSSLRSEDTAVYYCARRFYYGSDWYFDVWGQGTLVTVSS
VL: DIQLTQSPSFLSASVGDRVTITCKASQDVGTAVAWYQQKPGKAPKLLIYWASTRHTGVPSRFSGSGSGTEFTLTISSLQPEDFATYYCQQYSSYPLTFGQGTKVEIK
notes: Full-length human IgG1
B1 yielded an EC50 in the test with mouse Ang2 (mAng2) of 97 µg/mL. Besides, in test [1], the affinity, expressed as Kd, was 212 pM; the koff worked out at 1.4e-05 s⁻¹; the kon was determined as 66000 M⁻¹ s⁻¹.

B2: humanized anti-Ang2 antibody 4B9H11 (antibody, V domains shown)
VH: QVQLVESGGGLVKPGGSLRLSCAASGFTFSDYYMYWIRQAPGKGLEWVSTISVGGSFTYYPDSVKGRFTISRDNAKNSLYLQMNSLRAEDTAVYYCARDWGLRPWFVYWGQGTLVTVSS
VL: B1 VL with L4M, F10S, G30S, E70D, Y91H, S92Y, Y94T, L96P
notes: Full-length human IgG1
Regarding B2, in the test with mouse Ang2 (mAng2), the EC50 was determined as 105 µg/mL. In test [1], this molecule had a Kd of 17.1 pM, a koff of 1.58e-06 s⁻¹ and a kon of 92900 M⁻¹ s⁻¹.
